Measurements: the supplement of paper PMC5998384

Legend:
HeLa Kyoto [1] = assay: solubility change mitosis vs G1/S (difference of NP-40 vs SDS log2 ratios) (log2 ratio difference); higher = more soluble in mitosis
HeLa Kyoto [2] = assay: solubility in G1/S (NP-40 vs SDS abundance) (log2 ratio); higher = more soluble; conditions: cell cycle stage: G1/S
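For solubility change mitosis vs G1/S (difference of NP-40 vs SDS log2 ratios) in this document: synchronized HeLa Kyoto cells (double thymidine block for G1/S, nocodazole release for mitosis), protein amounts in NP-40 versus SDS lysates quantified by mass spectrometry, three biological replicates.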
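For solubility in G1/S (NP-40 vs SDS abundance) in this document: HeLa Kyoto cells arrested at G1/S by double thymidine block, proteins quantified by TMT10plex mass spectrometry in mild NP-40 versus SDS extracts, three biological replicates.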

| Substance | solubility change mitosis (log2) (HeLa Kyoto [1]) | solubility in G1/S (log2) (HeLa Kyoto [2]) |
| --- | --- | --- |
| MGMACLTMTEMEGTSTSSIYQNGDISGNANSMKQIDPVLQVYLYHSLGKSEADYLTFPSGEYVAEEICIAASKACGITPVYHNMFALMSETERIWYPPNHVFHIDESTRHNVLYRIRFYFPRWYCSGSNRAYRHGISRGAEAPLLDDFVMSYLFAQWRHDFVHGWIKVPVTHETQEECLGMAVLDMMRIAKENDQTPLAIYNSISYKTFLPKCIRAKIQDYHILTRKRIRYRFRRFIQQFSQCKATARNLKLKYLINLETLQSAFYTEKFEVKEPGSGPSGEEIFATIIITGNGGIQWSRGKHKESETLTEQDLQLYCDFPNIIDVSIKQANQEGSNESRVVTIHKQDGKNLEIELSSLREALSFVSLIDGYYRLTADAHHYLCKEVAPPAVLENIQSNCHGPISMDFAISKLKKAGNQTGLYVLRCSPKDFNKYFLTFAVERENVIEYKHCLITKNENEEYNLSGTKKNFSSLKDLLNCYQMETVRSDNIIFQFTKCCPPKPKDKSNLLVFRTNGVSDVPTSPTLQRPTHMNQMVFHKIRNEDLIFNESLGQGTFTKIFKGVRREVGDYGQLHETEVLLKVLDKAHRNYSESFFEAASMMSKLSHKHLVLNYGVCVCGDENILVQEFVKFGSLDTYLKKNKNCINILWKLEVAKQLAWAMHFLEENTLIHGNVCAKNILLIREEDRKTGNPPFIKLSDPGISITVLPKDILQERIPWVPPECIENPKNLNLATDKWSFGTTLWEICSGGDKPLSALDSQRKLQFYEDRHQLPAPKWAELANLINNCMDYEPDFRPSFRAIIRDLNSLFTPDYELLTENDMLPNMRIGALGFSGAFEDRDPTQFEERHLKFLQQLGKGNFGSVEMCRYDPLQDNTGEVVAVKKLQHSTEEHLRDFEREIEILKSLQHDNIVKYKGVCYSAGRRNLKLIMEYLPYGSLRDYLQKHKERIDHIKLLQYTSQICKGMEYLGTKRYIHRDLATRNILVENENRVKIGDFGLTKVLPQDKEYYKVKEPGESPIFWYAPESLTESKFSVASDVWSFGVVLYELFTYIEKSKSPPAEFMRMIGNDKQGQMIVFHLIELLKNNGRLPRPDGCPDEIYMIMTECWNNNVNQRPSFRDLALRVDQIRDNMAG [JAK2] | 0.0233 | -0.224 |
| MHGHGGYDSDFSDDERCGESSKRKKRTVEDDLLLQKPFQKEKHGKVAHKQVAAELLDREEARNRRFHLIAMDAYQRHTKFVNDYILYYGGKKEDFKRLGENDKTDLDVIRENHRFLWNEEDEMDMTWEKRLAKKYYDKLFKEYCIADLSKYKENKFGFRWRVEKEVISGKGQFFCGNKYCDKKEGLKSWEVNFGYIEHGEKRNALVKLRLCQECSIKLNFHHRRKEIKSKKRKDKTKKDCEESSHKKSRLSSAEEASKKKDKGHSSSKKSEDSLLRNSDEEESASESELWKGPLPETDEKSQEEEFDEYFQDLFL [FRA10AC1] | 0.365 | -0.47 |
| MWGFRLLRSPPLLLLLPQLGIGNASSCSQARTMNPGGSGGARCSLSAEVRRRQCLQLSTVPGADPQRSNELLLLAAAGEGLERQDLPGDPAKEEPQPPPQHHVLYFPGDVQNYHEIMTRHPENYQWENWSLENVATILAHRFPNSYIWVIKCSRMHLHKFSCYDNFVKSNMFGAPEHNTDFGAFKHLYMLLVNAFNLSQNSLSKKSLNVWNKDSIASNCRSSPSHTTNGCQGEKVRTCEKSDESAMSFYPPSLNDASFTLIGFSKGCVVLNQLLFELKEAKKDKNIDAFIKSIRTMYWLDGGHSGGSNTWVTYPEVLKEFAQTGIIVHTHVTPYQVRDPMRSWIGKEHKKFVQILGDLGMQVTSQIHFTKEAPSIENHFRVHEVF [C2ORF69] | 0.0615 | 0.0592 |
| MAGNFWQSSHYLQWILDKQDLLKERQKDLKFLSEEEYWKLQIFFTNVIQALGEHLKLRQQVIATATVYFKRFYARYSLKSIDPVLMAPTCVFLASKVEEFGVVSNTRLIAAATSVLKTRFSYAFPKEFPYRMNHILECEFYLLELMDCCLIVYHPYRPLLQYVQDMGQEDMLLPLAWRIVNDTYRTDLCLLYPPFMIALACLHVACVVQQKDARQWFAELSVDMEKILEIIRVILKLYEQWKNFDERKEMATILSKMPKPKPPPNSEGEQGPNGSQNSSYSQS [CCNC] | -0.0468 | -0.272 |
| MAAAEEGCSVGAEADRELEELLESALDDFDKAKPSPAPPSTTTAPDASGPQKRSPGDTAKDALFASQEKFFQELFDSELASQATAEFEKAMKELAEEEPHLVEQFQKLSEAAGRVGSDMTSQQEFTSCLKETLSGLAKNATDLQNSSMSEEELTKAMEGLGMDEGDGEGNILPIMQSIMQNLLSKDVLYPSLKEITEKYPEWLQSHRESLPPEQFEKYQEQHSVMCKICEQFEAETPTDSETTQKARFEMVLDLMQQLQDLGHPPKELAGEMPPGLNFDLDALNLSGPPGASGEQCLIM [PEX19] | 0.402 | -0.302 |
| MADSERLSAPGCWAACTNFSRTRKGILLFAEIILCLVILICFSASTPGYSSLSVIEMILAAIFFVVYMCDLHTKIPFINWPWSDFFRTLIAAILYLITSIVVLVERGNHSKIVAGVLGLIATCLFGYDAYVTFPVRQPRHTAAPTDPADGPV [PLP2] | -0.163 | -0.0955 |
| ALMS1 | 0.225 | 0.395 |
| MALLSRPALTLLLLLMAAVVRCQEQAQTTDWRATLKTIRNGVHKIDTYLNAALDLLGGEDGLCQYKCSDGSKPFPRYGYKPSPPNGCGSPLFGVHLNIGIPSLTKCCNQHDRCYETCGKSKNDCDEEFQYCLSKICRDVQKTLGLTQHVQACETTVELLFDSVIHLGCKPYLDSQRAACRCHYEEKTDL [PLA2G12A] | 0.347 | -0.604 |
| ALPK2 | 0.00635 | -0.117 |
| MAEEVSTLMKATVLMRQPGRVQEIVGALRKGGGDRLQVISDFDMTLSRFAYNGKRCPSSYNILDNSKIISEECRKELTALLHHYYPIEIDPHRTVKEKLPHMVEWWTKAHNLLCQQKIQKFQIAQVVRESNAMLREGYKTFFNTLYHNNIPLFIFSAGIGDILEEIIRQMKVFHPNIHIVSNYMDFNEDGFLQGFKGQLIHTYNKNSSACENSGYFQQLEGKTNVILLGDSIGDLTMADGVPGVQNILKIGFLNDKVEERRERYMDSYDIVLEKDETLDVVNGLLQHILCQGVQLEMQGP [NT5C3B] | -0.136 | 0.00588 |
| MQAKKRYFILLSAGSCLALLFYFGGLQFRASRSHSRREEHSGRNGLHHPSPDHFWPRFPDALRPFVPWDQLENEDSSVHISPRQKRDANSSIYKGKKCRMESCFDFTLCKKNGFKVYVYPQQKGEKIAESYQNILAAIEGSRFYTSDPSQACLFVLSLDTLDRDQLSPQYVHNLRSKVQSLHLWNNGRNHLIFNLYSGTWPDYTEDVGFDIGQAMLAKASISTENFRPNFDVSIPLFSKDHPRTGGERGFLKFNTIPPLRKYMLVFKGKRYLTGIGSDTRNALYHVHNGEDVVLLTTCKHGKDWQKHKDSRCDRDNTEYEKYDYREMLHNATFCLVPRGRRLGSFRFLEALQAACVPVMLSNGWELPFSEVINWNQAAVIGDERLLLQIPSTIRSIHQDKILALRQQTQFLWEAYFSSVEKIVLTTLEIIQDRIFKHISRNSLIWNKHPGGLFVLPQYSSYLGDFPYYYANLGLKPPSKFTAVIHAVTPLVSQSQPVLKLLVAAAKSQYCAQIIVLWNCDKPLPAKHRWPATAVPVVVIEGESKVMSSRFLPYDNIITDAVLSLDEDTVLSTTEVDFAFTVWQSFPERIVGYPARSHFWDNSKERWGYTSKWTNDYSMVLTGAAIYHKYYHYLYSHYLPASLKNMVDQLANCEDILMNFLVSAVTKLPPIKVTQKKQYKETMMGQTSRASRWADPDHFAQRQSCMNTFASWFGYMPLIHSQMRLDPVLFKDQVSILRKKYRDIERL [EXT1] | -0.163 | -0.14 |
| MAALTPRKRKQDSLKCDSLLHFTENLFPSPNKKHCFYQNSDKNEENLHCSQQEHFVLSALKTTEINRLPSANQGSPFKSALSTVSFYNQNKWYLNPLERKLIKESRSTCLKTNDEDKSFPIVTEKMQGKPVCSKKNNKKPQKSLTAKYQPKYRHIKPVSRNSRNSKQNRVIYKPIVEKENNCHSAENNSNAPRVLSQKIKPQVTLQGGAAFFVRKKSSLRKSSLENEPSLGRTQKSKSEVIEDSDVETVSEKKTFATRQVPKCLVLEEKLKIGLLSASSKNKEKLIKDSSDDRVSSKEHKVDKNEAFSSEDSLGENKTISPKSTVYPIFSASSVNSKRSLGEEQFSVGSVNFMKQTNIQKNTNTRDTSKKTKDQLIIDAGQKHFGATVCKSCGMIYTASNPEDEMQHVQHHHRFLEGIKYVGWKKERVVAEFWDGKIVLVLPHDPSFAIKKVEDVQELVDNELGFQQVVPKCPNKIKTFLFISDEKRVVGCLIAEPIKQAFRVLSEPIGPESPSSTECPRAWQCSDVPEPAVCGISRIWVFRLKRRKRIARRLVDTLRNCFMFGCFLSTDEIAFSDPTPDGKLFATKYCNTPNFLVYNFNS [ESCO2] | 0.997 | -0.994 |
| MAVLGVQLVVTLLTATLMHRLAPHCSFARWLLCNGSLFRYKHPSEEELRALAGKPRPRGRKERWANGLSEEKPLSVPRDAPFQLETCPLTTVDALVLRFFLEYQWFVDFAVYSGGVYLFTEAYYYMLGPAKETNIAVFWCLLTVTFSIKMFLTVTRLYFSAEEGGERSVCLTFAFLFLLLAMLVQVVREETLELGLEPGLASMTQNLEPLLKKQGWDWALPVAKLAIRVGLAVVGSVLGAFLTFPGLRLAQTHRDALTMSEDRPMLQFLLHTSFLSPLFILWLWTKPIARDFLHQPPFGETRFSLLSDSAFDSGRLWLLVVLCLLRLAVTRPHLQAYLCLAKARVEQLRREAGRIEAREIQQRVVRVYCYVTVVSLQYLTPLILTLNCTLLLKTLGGYSWGLGPAPLLSPDPSSASAAPIGSGEDEVQQTAARIAGALGGLLTPLFLRGVLAYLIWWTAACQLLASLFGLYFHQHLAGS [TMEM161A] | -0.0501 | -0.184 |
